Entries after “also recorded” stand apart in the source; their conditions may differ.
How the values were obtained:
[1] = tested on: HPV-16 enhancer in SiHa cells; test: Chip assay of H3K9me2 and H3K27me3 at the targeted enhancer; assay type: cell-based; settings: harvested after 5 days
Method: FIG. 13: Elucidating the mechanism of transcriptional gene silencing: (A) SiHa cells untreated or treated with TSA were transfected with NFκB+PLAP enhancer-promoter chimera expressing test & scrambled shRNA and harvested after 5 days. Chip was performed with antibodies against H3K9me2 and H3K27me3; antibodies against RNA polymerase and mouse IgG were respectively used as positive and negative controls for pull down. Input and immuno-precipitated DNA were measured by PCR with requisite primers and the enrichment at enhancer region was further quantified by qPCR.
Using chip assay, we assessed the level of histone H3K9 dimethylation (H3K9me2) and H3K27 trimethylation (H3K27me3), two repressive epigenetic marks shown to increase as a result of TGS.

[2] = tested on: PLAP negative cell lines HepG2 (Hepatoma) & CHO; test: Dual luciferase reporter assay of promoter/enhancer-promoter constructs in PLAP negative cell lines; assay type: cell-based; settings: PLAP negative/control cell lines HepG2 & CHO, 48 hours post transfection
Method: (§1) All transfections were performed using Lipofectamine™ 2000 transfection reagent according to manufacturer's instruction (Invitrogen). Briefly, (1×10^6/well) cells were cultured in 6-well plates overnight. The luciferase reporter vectors (PLAP-luc, NFκB+PLAP−luc & pG13 Basic; 1 μg well^−1) were co-transfected in 20:1 ratio with Renilla luciferase expression vector (pRL-TK), an internal control for normalisation of the transcriptional activity of the reporter vectors. Forty-eight hours post transfection, the cells were lysed and luciferase activities were assayed using Dual Luciferase Assay reagents (Promega) according to manufacturer's protocol. All transfections were performed in triplicate and all experiments were repeated at least twice.
(§2) The region of PLAP promoter spanning from −170 to +24 containing invariant TATA boxes (nucleotides −31 to −25) & Sp1 binding sites (nucleotides −84 to −76) cloned in promoter less luciferase expression vector PGL3 basic was transfected in battery of PLAP positive cell cervical cell lines (HeLa, SiHa and CaSki) and appropriate PLAP negative cell lines HepG2 (Hepatoma) & CHO. Promoter activity was assayed in these in vitro model systems by dual luciferase assay.
(§3) To develop an optimal enhancer-promoter system for improving the transcriptional activity of PLAP promoter a fusion construct comprising of PLAP promoter & tetramer of NFKB binding sites cloned in PGL3 basic was evaluated by dual luciferase assay in the above mentioned cell lines. Furthermore, we compared the transcriptional activity of PLAP promoter/enhancer systems with strong SV40 virus promoter (PGL3 C).

[3] = tested on: PLAP positive cell lines (HeLa, SiHa, CaSki, Caco-2); test: Dual luciferase reporter assay of promoter/enhancer-promoter constructs in PLAP positive cell lines; assay type: cell-based, human; settings: for transcriptional activity (relative luciferase activity over pGL3-Basic): PLAP positive cell lines, 48 hours post transfection, normalised by Renilla; for tissue specificity of luciferase expression: PLAP positive versus PLAP negative cell lines; for tissue specificity of luciferase expression / trend of construct activity (strength): FIG. 6; for trend of construct activity (strength): luciferase reporter constructs
Method: as §1, §2, §3

[4] = listed as NFκB+PLAP promoter enhancer systems

CC(/C=C/C(=O)NO)=C\[C@@H](C)C(=O)c1ccc(N(C)C)cc1 [trichostatin]
levels of H3K9me2 and H3K27me3 at the targeted enhancer [1]: reduced this enrichment

B1: PLAP promoter: human PLAP promoter region −170 to +24 cloned in promoter less luciferase expression vector pGL3 Basic (nucleic acid, listed as Homo sapiens)
DNA: AAGCTGCCTTTCTCAGGACCCCAGCCCCAGCCCAGCCCAGCCACACCCTGCGACTCTCTTCAGCCAGTGTGGCTTCAGGTCAAGAGGCTGGGCGGGGTCAAGGTGGTAACAAGGGGAGGGGCCAGGACACAGTTTTCCCTGATTTAAACCCAGGCAGCCTGGAGTGCAGCTCATACTCCATACCTGGGATTTCCGC
modifications: in pGL3 Basic luciferase vector; DNASequence (1)..(196) Unique PLAP promoter Sequence
notes: human PLAP promoter region −170 to +24 cloned in promoter less luciferase expression vector pGL3 Basic
transcriptional activity (relative luciferase activity over pGL3-Basic) [2]: little or no activity in the control cell lines; also recorded: not in PLAP negative cell line | transcriptional activity (relative luciferase activity over pGL3-Basic) [3]: of optimum level only in carcinoma cell lines expressing PLAP; also recorded: selective transcriptional activity in all the PLAP positive cell lines | tissue specificity of luciferase expression [3]: tissue selective expression | trend of construct activity (strength) [3]: NFκB−PLAP Pr>SV40 Pr>PLAP Pr

B2: NFKB−PLAP enhancer-promoter system: tetramer of NFκB DNA binding sites (GGGAATTTCC) upstream of PLAP promoter −170 to +24 in pGL3 Basic luciferase vector (nucleic acid)
DNA: GGGAATTTCCGGGAATTTCCGGGAATTTCCGGGAATTTCCAAGCTGCCTTTCTCAGGACCCCAGCCCCAGCCCAGCCCAGCCACACCCTGCGACTCTCTTCAGCCAGTGTGGCTTCAGGTCAAGAGGCTGGGCGGGGTCAAGGTGGTAACAAGGGGAGGGGCCAGGACACAGTTTTCCCTGATTTAAACCCAGGCAGCCTGGAGTGCAGCTCATACTCCATACCTGGGATTTCCGC
modifications: in pGL3 Basic luciferase vector; Enhancer (NFKB)-Promoter (PLAP) Sequence.
transcriptional activity (relative luciferase activity over pGL3-Basic) [2]: not in PLAP negative cell line | transcriptional activity (relative luciferase activity over pGL3-Basic) [2, 4]: little or no activity in the control cell lines | transcriptional activity (relative luciferase activity over pGL3-Basic) [3]: selective transcriptional activity in all the PLAP positive cell lines; also recorded: highly comparable to that of strong SV40 virus promoter | transcriptional activity (relative luciferase activity over pGL3-Basic) [3, 4]: of optimum level only in carcinoma cell lines expressing PLAP | tissue specificity of luciferase expression [3]: tissue selective expression | trend of construct activity (strength) [3]: NFκB−PLAP Pr>SV40 Pr>PLAP Pr

Source: patent publication US9868960B2, “Placental like alkaline phosphatase (PLAP) promoter mediated cell targeting” (priority 2013, dated 2018)
